Data: PMC7078487

Molecular target: soluble FixL (FixL_(118–495), missing the transmembrane domain) (Caulobacter crescentus)

Caulobacter crescentus FixT (natural protein)
accumulation of autophosphorylated FixL ([γ-32P]ATP, 30-minute time course; FixL 5 μM, FixJ(D55A) 20 μM, FixT 80 μM): 3 fold
